Measured values as given in patent CN111072775A (OLYMVAX BIOPHARMACEUTICALS INC; UNIV ARMY MEDICAL, dated 2020).
Numbering of substitutions follows the chain as printed.

T1: MntC蛋白 (锰离子转运蛋白C亚单位, 重组MntC蛋白) (金黄色葡萄球菌 (Staphylococcus aureus))
T1 construct: Recombinant MntC used as immunogen and as ELISA coating antigen; also called MntC重组蛋白; MntC蛋白标准品
T1 chain: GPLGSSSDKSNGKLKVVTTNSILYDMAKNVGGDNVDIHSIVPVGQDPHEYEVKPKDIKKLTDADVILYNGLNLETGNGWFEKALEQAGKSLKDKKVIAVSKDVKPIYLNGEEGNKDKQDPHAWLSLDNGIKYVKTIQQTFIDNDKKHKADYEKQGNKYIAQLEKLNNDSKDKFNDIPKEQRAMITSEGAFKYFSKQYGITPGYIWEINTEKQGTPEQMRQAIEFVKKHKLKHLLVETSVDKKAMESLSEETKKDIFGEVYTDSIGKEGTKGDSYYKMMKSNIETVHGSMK

B1: HRP标记的抗体3F6 (antibody, V domains shown)
VH: VQLQQSGPSLVKPSQTLSLTCSVTGDSITNGYWNWIRKFPGNKLEYMGYISYSGTTYYNPSLKSRISITRDTSKNQYYLQLNSVTTEDTATYYCSRIRPYRHLGFDYWGQGTTVTVSS
VL: DIVMTQTPASLAVSLGQRATISCKASQSVDYGGDSYMNWYQQKPGQPPKLLIYAASNLESGIPARFSGSGSGTDFTLNIHPVEEEDGATYYCQQSNEDPWTFGGGTKLEIK
modifications: HRP label by the sodium periodate oxidation method; chain and site not stated
notes: also called HRP标记抗体 (3F6)
B2: HRP标记的抗体3C10 (antibody, V domains shown)
VH: B1 VH with Q2K, Q5E
VL: B1 VL with T7S, P8T
modifications: HRP label by the sodium periodate oxidation method; chain and site not stated
notes: also called HRP标记抗体 (3C10); 酶结合物(抗体3C10)

Target: T1, MntC蛋白 (锰离子转运蛋白C亚单位, 重组MntC蛋白)
Assay: ELISA on MntC with HRP-labelled antibody

Binder | binding result
B1 | binds
B2 | binds
